The results in this text go back to paper PMC6895276 (Nucleic Acids Research, 2019).

The term Kd denotes a measure of binding affinity in units of concentration. A low value points to a tighter complex.

Assay in all cases: SPR
For orientation: Surface plasmon resonance follows binding to a sensor surface in real time, without labels.

Test [1] has as its target MutS STAB1 (Escherichia coli) (UniProt P23909).
In test [2] the target is MutS STAB3 (Escherichia coli) (UniProt P23909).
The target in test [3] is MutS STAB2 (Escherichia coli) (UniProt P23909).
For test [4], the target named is MutS STAB4 (Escherichia coli) (UniProt P23909).
Test [5] concerns the target T1, WT MutS (Escherichia coli, UniProt P23909 1-853).
T1 sequence (looked up): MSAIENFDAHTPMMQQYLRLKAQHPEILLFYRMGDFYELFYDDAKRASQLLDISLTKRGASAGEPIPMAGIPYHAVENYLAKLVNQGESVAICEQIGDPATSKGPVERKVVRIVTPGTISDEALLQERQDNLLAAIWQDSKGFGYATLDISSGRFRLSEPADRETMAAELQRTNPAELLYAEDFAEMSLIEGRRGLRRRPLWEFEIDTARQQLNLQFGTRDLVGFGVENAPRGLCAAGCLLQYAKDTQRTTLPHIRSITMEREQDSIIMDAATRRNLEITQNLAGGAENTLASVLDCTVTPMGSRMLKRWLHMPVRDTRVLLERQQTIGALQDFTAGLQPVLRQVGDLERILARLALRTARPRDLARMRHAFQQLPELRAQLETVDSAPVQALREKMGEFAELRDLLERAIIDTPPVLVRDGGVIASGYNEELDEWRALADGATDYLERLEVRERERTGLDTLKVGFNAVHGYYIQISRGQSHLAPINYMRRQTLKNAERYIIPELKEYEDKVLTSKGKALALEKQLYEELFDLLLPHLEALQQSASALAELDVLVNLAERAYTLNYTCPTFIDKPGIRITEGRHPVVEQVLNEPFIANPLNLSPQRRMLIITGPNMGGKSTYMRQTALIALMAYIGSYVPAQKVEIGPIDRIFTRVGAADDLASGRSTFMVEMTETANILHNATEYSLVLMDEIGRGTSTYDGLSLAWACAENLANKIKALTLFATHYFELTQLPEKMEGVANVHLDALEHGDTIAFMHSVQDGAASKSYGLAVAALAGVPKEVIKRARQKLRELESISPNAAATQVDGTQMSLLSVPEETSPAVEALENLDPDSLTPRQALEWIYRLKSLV

Take “MutL WT (from UniProt P23367 1-615) (natural protein)”: the Kd was 0.018 µM in test [1], 0.017 µM in test [2], 0.016 µM in test [3] and 0.011 µM in test [4].

B1: MutL WT (natural protein, UniProt P23367 1-615, looked up)
chain: MPIQVLPPQLANQIAAGEVVERPASVVKELVENSLDAGATRIDIDIERGGAKLIRIRDNGCGIKKDELALALARHATSKIASLDDLEAIISLGFRGEALASISSVSRLTLTSRTAEQQEAWQAYAEGRDMNVTVKPAAHPVGTTLEVLDLFYNTPARRKFLRTEKTEFNHIDEIIRRIALARFDVTINLSHNGKIVRQYRAVPEGGQKERRLGAICGTAFLEQALAIEWQHGDLTLRGWVADPNHTTPALAEIQYCYVNGRMMRDRLINHAIRQACEDKLGADQQPAFVLYLEIDPHQVDVNVHPAKHEVRFHQSRLVHDFIYQGVLSVLQQQLETPLPLDDEPQPAPRSIPENRVAAGRNHFAEPAAREPVAPRYTPAPASGSRPAAPWPNAQPGYQKQQGEVYRQLLQTPAPMQKLKAPEPQEPALAANSQSFGRVLTIVHSDCALLERDGNISLLSLPVAERWLRQAQLTPGEAPVCAQPLLIPLRLKVSAEEKSALEKAQSALAELGIDFQSDAQHVTIRAVPLPLRQQNLQILIPELIGYLAKQSVFEPGNIAQWIARNLMSEHAQWSMAQAITLLADVERLCPQLVKTPPGGLLQSVDLHPAIKALKDE
For the molecule B1, binding in test [5] was put at a Kd of 0.015 µM.
